Measured values as given in patent publication US6461832B2, “Method of detecting procarboxypeptidase A and carboxypeptidase A levels in biological fluids” (priority 1997, dated 2002).
Where “and” joins values, the source holds several entries; their conditions need not be identical. Equal entries are not always repeated.

T1: carboxypeptidase A (CPA) (Homo sapiens, UniProt P15085)
T1 sequence (P15085 111-419): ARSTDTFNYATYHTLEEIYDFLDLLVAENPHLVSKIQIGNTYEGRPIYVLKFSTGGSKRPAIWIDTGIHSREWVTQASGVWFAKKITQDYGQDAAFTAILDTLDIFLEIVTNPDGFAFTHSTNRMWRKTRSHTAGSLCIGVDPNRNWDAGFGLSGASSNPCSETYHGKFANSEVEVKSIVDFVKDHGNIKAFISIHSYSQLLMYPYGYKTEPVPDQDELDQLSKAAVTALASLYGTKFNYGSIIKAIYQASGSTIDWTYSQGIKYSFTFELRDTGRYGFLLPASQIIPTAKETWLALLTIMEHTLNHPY


Columns and labels:
carboxypeptidase A (CPA) = target: T1, carboxypeptidase A (CPA); conditions: CPA specific inhibitor; reported values (Byers and Wolfenden 1973; Peterson et al. 1976); cited from earlier work
[1] = system: procarboxypeptidase A (PCPA) in human serum; test: Activation of PCPA in human serum with clostripain, total CPA activity; type: biochemical; conditions: sera from four healthy individuals and one with pancreatitis
Description: In the present invention, the protease clostripain was added to activate any PCPA in the biological fluid so that total CPA could be measured.
Approximately 3 mg (500 units) of lyophilized clostripain was dissolved in 1 ml of 10 mM Tris buffer (pH 8.0) along with CaCl2 and Cleland's Reagent at final concentrations of 20 mM and 1 mM, respectively. This mixture was incubated at room temperature for approximately 2 hours. This solution was then added to serum in concentrations ranging from approximately 50 to 500 units of clostripain/ml of serum. One unit was defined as the amount of clostripain which could cleave one micromole of Nα-benzoyl arginine ethyl ester (BAEE) in one minute. Determination of PCPA levels in blood donor samples was performed with 250 units of clostripain per ml serum. The standard serum volume was 0.013 ml serum per ml total solution. This mixture was incubated for five minutes at 37° C., after which time Ellman's Reagent was added at the standard concentration to eliminate clostripain as it quickly derivatizes all sulfhydryl groups in the mixture. From this point, the standard assay as described in Example 2 was followed.

Molecule | Ki (carboxypeptidase A (CPA)) | CPA activities after activation, compared with trypsin [1] | CPA activity loss at supramaximal concentrations of activating protease ([1]; unlike trypsin)
O=C(O)CC(Cc1ccccc1)C(=O)O (racemic) [α-benzylsuccinic acid] | 1000 nM and 1600 nM |  | 
clostripain: protease added to activate PCPA in the biological fluid (protein, UniProt P09870 51-181; P09870 191-526, looked up) Clostripain light chain: NKNQKVTIMYYCDADNNLEGSLLNDIEEMKTGYKDSPNLNLIALVDRSPRYSSDEKVLGEDFSDTRLYKIEHNKANRLDGKNEFPEISTTSKYEANMGDPEVLKKFIDYCKSNYEADKYVLIMANHGGGAR Clostripain heavy chain: AICWDDSNLDKNGEADCLYMGEISDHLTEKQSVDLLAFDACLMGTAEVAYQYRPGNGGFSADTLVASSPVVWGPGFKYDKIFDRIKAGGGTNNEDDLTLGGKEQNFDPATITNEQLGALFVEEQRDSTHANGRYDQHLSFYDLKKAESVKRAIDNLAVNLSNENKKSEIEKLRGSGIHTDLMHYFDEYSEGEWVEYPYFDVYDLCEKINKSENFSSKTKDLASNAMNKLNEMIVYSFGDPSNNFKEGKNGLSIFLPNGDKKYSTYYTSTKIPHWTMQSWYNSIDTVKYGLNPYGKLSWCKDGQDPEINKVGNWFELLDSWFDKTNDVTGGVNHYQW |  | significantly higher than the maximum values that could be obtained when using trypsin | only slight CPA activity losses
